From patent publication US20170151343A1 (AbbVie / Abbott, published 2017)
Numbering of substitutions follows the chain as printed. Numbers in names are those of the source.

How the values were obtained:
[1] = target: T1, human LRRC15 (leucine-rich repeat-containing protein 15), expressed on cells (human, UniProt Q8TF66 22-581); experiment: flow cytometry on U118MG cells
T1 construct: Cells: U118MG (endogenous), HCT116-huLRRC15, 3T12-huLRRC15 transfectants, TGFbeta-treated A549, human BM-MSC; also called huLRRC15; endogenous huLRRC15
T1 sequence: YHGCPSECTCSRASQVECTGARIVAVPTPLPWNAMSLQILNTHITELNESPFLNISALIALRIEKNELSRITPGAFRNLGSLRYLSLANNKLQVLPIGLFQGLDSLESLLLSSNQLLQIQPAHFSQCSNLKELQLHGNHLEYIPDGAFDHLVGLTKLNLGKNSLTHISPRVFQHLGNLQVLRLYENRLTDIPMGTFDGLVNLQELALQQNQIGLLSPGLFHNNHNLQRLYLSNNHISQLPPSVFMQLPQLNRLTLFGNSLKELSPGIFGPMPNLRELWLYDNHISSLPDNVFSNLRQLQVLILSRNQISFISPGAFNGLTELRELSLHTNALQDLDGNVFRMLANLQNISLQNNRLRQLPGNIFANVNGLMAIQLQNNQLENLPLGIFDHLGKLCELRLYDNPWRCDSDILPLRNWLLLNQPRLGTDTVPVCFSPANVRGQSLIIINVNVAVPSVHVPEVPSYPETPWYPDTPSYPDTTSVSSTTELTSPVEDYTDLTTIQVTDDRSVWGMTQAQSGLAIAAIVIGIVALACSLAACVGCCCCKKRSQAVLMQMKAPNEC
Description: Isotype control antibodies (mouse or human) were used as appropriate.

[2] = target: T2, huLRRC15-Fc fusion protein (huLRRC15 ECD residues 22 to 526 of SEQ ID NO:3 fused to Fc) (human, UniProt Q8TF66 22-526); experiment: ELISA on coated huLRRC15-ECD-Fc
T2 construct: Coated on the ELISA plate at 2 ug/mL; also called huLRRC15-ECD-Fc; huLRRC15 fusion ECD protein
T2 sequence: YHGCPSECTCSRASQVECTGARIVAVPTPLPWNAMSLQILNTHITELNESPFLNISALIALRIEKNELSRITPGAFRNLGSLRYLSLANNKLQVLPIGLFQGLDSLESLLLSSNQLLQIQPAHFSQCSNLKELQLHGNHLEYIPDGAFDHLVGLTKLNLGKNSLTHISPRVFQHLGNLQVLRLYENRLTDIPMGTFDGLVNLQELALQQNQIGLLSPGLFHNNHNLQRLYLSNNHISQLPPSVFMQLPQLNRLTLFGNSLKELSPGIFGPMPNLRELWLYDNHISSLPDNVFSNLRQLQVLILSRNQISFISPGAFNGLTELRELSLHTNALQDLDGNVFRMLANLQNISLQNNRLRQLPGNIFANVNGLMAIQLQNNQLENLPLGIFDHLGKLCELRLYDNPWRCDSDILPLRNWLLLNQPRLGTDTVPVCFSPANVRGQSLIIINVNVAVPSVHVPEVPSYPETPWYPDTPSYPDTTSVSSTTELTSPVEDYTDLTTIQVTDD
Procedure: 96-well Immulon 4HBX plates (Thermo, cat. #3855) were coated with 100 μL/well of this huLRRC15 fusion ECD protein at 2 μg/mL in carbonate-bicarbonate buffer (Thermo, cat.#28382) pH 9.4 and allowed to bind overnight at 4° C. Plates were washed three times with PBST and then incubated with various concentrations of antibodies in PBST+0.3% BSA at room temperature for one hour. […] Plates were washed three times in PBST and 100 μL of TMB (Surmodics BioFx cat.# TMBW-1000-01) was added to each well and incubated at RT until color developed (approximately 10 minutes). Reactions were stopped by the addition of 650 nm Stop Reagent for TMB (Surmodics BioFx, cat.# BSTP-0100-01), and optical density (OD) was read at 650 nm (Molecular Devices Versamax PLUS).

[3] = target: T1, human LRRC15 (leucine-rich …); experiment: cell-based or functional assay
[4] = target: T1, human LRRC15 (leucine-rich …); experiment: flow cytometry competition on U118MG cells; unlabeled antibody titrated against muM25-AF488 at 1 ug/ml, GeoMean normalized to muM25-AF488 alone

B1: huAD208.12.1 (antibody, V domains shown)
VH: EVQLVQSGAEVKKPGSSVKVSCKASGYTFTNYWMHWVKQAPGQGLEWIGMIHPNSGSTKHNEKFRGKATLTVDESTTTAYMELSSLRSEDTAVYYCARSDFGNYRWYFDVWGQGTTVTVSS
VL: EIVLTQSPATLSLSPGERATLSCRASQSSSNNLHWYQQKPGQAPRVLIKYVSQSISGIPARFSGSGSGTDFTLTISSLEPEDFAVYFCQQSNSWPFTFGQGTKLEIK
notes: Humanized full-length antibody
B1: binds [1].

B2: huAD208.4.1 (antibody, V domains shown)
VH: EVQLVQSGAEVKKPGSSVKVSCKASGFTFTDYYIHWVKQAPGQGLEWIGLVYPYIGGTNYNQKFKGKATLTVDTSTTTAYMEMSSLRSEDTAVYYCARGDNKYDAMDYWGQGTTVTVSS
VL: DIVLTQSPDSLAVSLGERATINCRASQSVSTSSYSYMHWYQQKPGQPPKLLIKYASSLESGVPDRFSGSGSGTDFTLTISSLQAEDVAVYYCEQSWEIRTFGGGTKVEIK
notes: Humanized full-length antibody, compared with a huIgG1 isotype control
Binder B2 has an EC50 [1] of 290 pM and an EC50 [2] of 250 pM.

B3: huAD208.14.1 (antibody, V domains shown)
VH: B2 VH with T58S, N59S, K63Q, T77S, M83L, K102N
VL: B2 VL with N22S, S33T, S35N, I52V, S57N, E93H, Q94H, S95T
notes: Humanized full-length antibody; Compared with a huIgG1 isotype control
B3 gave an EC50 [1] of 5250 pM and an EC50 [2] of 800 pM.

B4: hu139.10 (antibody, V domains shown)
VH: EVQLVESGGGLVQPGGSLRLSCAVSGFSLTSYGVHWVRQATGKGLEWLGVIWAGGSTNYNSALMSRLTISKENAKSSVYLQMNSLRAGDTAMYYCATHMITEDYYGMDYWGQGTTVTVSS
VL: DIVMTQSPDSLAVSLGERATINCKSSQSLLNSRTRKNYLAWYQQKPGQSPKLLIYWASTRESGVPDRFSGSGSGTDFTLTISSLQAEDVAVYYCKQSYNLPTFGGGTKVEIK
notes: as for B3
B4 gave an EC50 [1] of 280 pM and an EC50 [2] of 110 pM.

B5: muAD210.40.9 (antibody, V domains shown)
VH: QVQLQQSGAELVRPGTSVKISCKASGYDFTNYWLGWVKQRPGHGLEWIGDIYPGGGNTYYNEKLKGKATLTADKSSSTAYIHLISLTSEDSSVYFCARWGDKKGNYFAYWGQGTLVTVSA
VL: QIVLTQSPAIMSASLGERVTMTCTASSSVYSSYLHWYQQKPGSSPKLWIYSTSNLASGVPGRFSGSGSGTSYSLTISSMEAEDAATYYCHQYHRSPTFGGGTKLEIK
notes: Murine antibody; Compared with a muIgG2a isotype control
With B5 the EC50 [1] was 80 pM.

B6: huM25-mcMMAF-E2 (antibody, human IgG1, kappa)
heavy: not shown
light: DIQMTQSPSSLSASVGDRVTITCRASQDISNYLNWYQQKPGGAVKFLIYYTSRLHSGVPSRFSGSGSGTDYTLTISSLQPEDFATYFCQQGEALPWTFGGGTKVEIKRTVAAPSVFIFPPSDEQLKSGTASVVCLLNNFYPREAKVQWKVDNALQSGNSQESVTEQDSKDSTYSLSSTLTLSKADYEKHKVYACEVTHQGLSSPVTKSFNRGEC
modifications: mcMMAF (maleimidocaproyl monomethyl auristatin F) on cysteines of reduced interchain disulfides, two drugs per antibody (E2); which chain carries them is not stated
With B6 the “in vitro killing of HCT116-huLRRC15 cells, EC50” value [3] was 28 pM.

B7: huM25 (antibody, human IgG1, kappa)
heavy: not shown
light: B6 light
notes: Humanized IgG1 kappa; also called huM25-AF647
In the case of B7, the EC50 [1] is reported as 498 pM, the EC50 [2] is reported as 260 pM and the “IC50 (read off the curve)” value [4] is reported as roughly 0.4 µg/mL.

B8: huM25-vcMMAE-E2 (antibody, human IgG1, kappa)
heavy: not shown
light: B6 light
modifications: vcMMAE (maleimidocaproyl-Val-Cit-PABA-monomethyl auristatin E) on cysteines of reduced interchain disulfides, two drugs per antibody (E2); which chain carries them is not stated
With B8 the “in vitro killing of HCT116-huLRRC15 cells, EC50” value [3] was 69 pM.

B9: huM25-S239C-PBD-E2 (antibody, human IgG1, kappa)
heavy: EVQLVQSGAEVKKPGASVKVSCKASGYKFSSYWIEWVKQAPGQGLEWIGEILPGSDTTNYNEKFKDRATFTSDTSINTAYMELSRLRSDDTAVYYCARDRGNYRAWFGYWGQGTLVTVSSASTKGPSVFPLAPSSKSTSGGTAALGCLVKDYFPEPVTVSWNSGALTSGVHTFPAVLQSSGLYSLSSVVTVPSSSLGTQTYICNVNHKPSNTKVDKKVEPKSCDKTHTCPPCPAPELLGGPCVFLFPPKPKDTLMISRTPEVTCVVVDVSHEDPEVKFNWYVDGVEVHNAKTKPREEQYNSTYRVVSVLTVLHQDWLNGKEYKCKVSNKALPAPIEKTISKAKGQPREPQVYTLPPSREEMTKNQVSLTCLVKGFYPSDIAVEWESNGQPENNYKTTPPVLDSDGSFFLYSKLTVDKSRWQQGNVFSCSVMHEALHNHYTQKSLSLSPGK
light: B6 light
modifications: vaPBD (Val-Ala pyrrolobenzodiazepine dimer synthon) on the engineered cysteine S239C, DAR2
B9 was tested, and the “in vitro killing of A549-EMT transformed cells treated with TGFbeta, EC50” value [3] was 10 pM.

B10: muAD209.9.1 (antibody, V domains shown)
VH: QIQLVQSGPELKKPGETVKISCKASGFAITNFGMNWVKQAPGKGLKWMGWINLYTGEPTFADDFKGRFAFSLETSASTAYLQINNLKNEDTVIYFCARKGETYYRYDGFAYWGQGTLVTVSA
VL: DIVMTQAAPSVPVTPGESVSISCRSSKSLLHSNGNTHLYWFLQRPGQSPQLLIYRMSNLASGVPDRFSGSGSGTAFTLRISRVEAEDVGVYYCMQLLEYPYTFGGGTKLEIE
notes: as for B5
Binder B10 has an EC50 [1] of 787 pM and an EC50 [2] of 140 pM.
